Drawing on publication PMC3634827, this text covers ratio to parent for five substances.

For assay [1], the target named is CoREST (UniProt Q8CFE3). Kind of assay: FLAG co-immunoprecipitation, immunoblot quantitated with ImageJ. As to conditions: NIH 3T3 cells transiently transfected; mean of two independent experiments; parent: est. 1.0; read off a plot. On the technique in general: A western blot detects proteins with antibodies after separation by electrophoresis.
Assay [2] deals with CoREST (UniProt Q8CFE3). Briefly: co-immunoprecipitation of endogenous proteins (CoREST IP'ed with Lsd1), immunoblot quantitated with ImageJ. As to conditions: primary MEFs; mean of three independent experiments; p<0.005 vs wild type; parent: est. 1.0; read off a plot.
Assay [3] concerns the target CoREST (UniProt Q8CFE3). Kind of assay: co-immunoprecipitation of endogenous proteins (Lsd1 IP'ed with CoREST), immunoblot quantitated with ImageJ. As to conditions: primary MEFs; mean of three independent experiments; p<0.001 vs wild type; parent: est. 1.0; read off a plot.

Chain of UniProt Q8CFE3 (Q8CFE3 whole entry): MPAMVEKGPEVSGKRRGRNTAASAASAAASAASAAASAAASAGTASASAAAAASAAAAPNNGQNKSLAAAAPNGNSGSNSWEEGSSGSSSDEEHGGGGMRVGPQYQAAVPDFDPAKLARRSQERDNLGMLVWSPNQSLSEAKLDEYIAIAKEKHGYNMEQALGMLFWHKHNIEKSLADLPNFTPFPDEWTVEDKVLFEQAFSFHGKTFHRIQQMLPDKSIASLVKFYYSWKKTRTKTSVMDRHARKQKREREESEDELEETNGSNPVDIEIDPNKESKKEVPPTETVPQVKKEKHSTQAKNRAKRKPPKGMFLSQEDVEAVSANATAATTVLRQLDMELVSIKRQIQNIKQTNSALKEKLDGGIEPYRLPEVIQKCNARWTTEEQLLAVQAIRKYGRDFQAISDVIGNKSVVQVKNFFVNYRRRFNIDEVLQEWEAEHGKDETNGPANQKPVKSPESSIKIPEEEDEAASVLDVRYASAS

As for “FLAG-tagged wild-type Lsd1 (lysine-specific demethylase 1) (from UniProt Q6ZQ88) E413G; M448V”, the ratio to parent with CoREST [1] turned out to be 0.09. Take “endogenous wild-type Lsd1 (from UniProt Q6ZQ88) E413G; M448V”: the results for the ratio to parent with CoREST [2] and with CoREST [3] were 0.44 and 0.11, respectively. In the case of “FLAG-tagged wild-type Lsd1 (lysine-specific demethylase 1) (from UniProt Q6ZQ88) N535A”, the ratio to parent with CoREST [1] worked out at 1.8. Consider “FLAG-tagged wild-type Lsd1 (lysine-specific demethylase 1) (from UniProt Q6ZQ88) E413G”, for which the ratio to parent in the assay with CoREST [1] was 0.89. With “FLAG-tagged wild-type Lsd1 (lysine-specific demethylase 1) (from UniProt Q6ZQ88) M448V”, the ratio to parent with CoREST [1] came to 0.35.
